Changes are numbered by the printed parent chain.
T1: in-house generated I domain of α11β1 (human, UniProt Q9UKX5 159-349, limits assumed)
T1 construct: domain: I domain; also called human α11β1 I domain; α11β1 I Domain
T1 sequence (looked up): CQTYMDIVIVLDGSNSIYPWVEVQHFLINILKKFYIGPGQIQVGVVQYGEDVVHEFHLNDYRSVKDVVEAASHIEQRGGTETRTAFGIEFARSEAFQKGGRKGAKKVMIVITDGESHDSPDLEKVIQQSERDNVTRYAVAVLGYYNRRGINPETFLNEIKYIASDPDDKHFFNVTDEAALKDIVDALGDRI

B1: 10-L15 (antibody, V domains shown)
VH: QVQLQQSGPELVRPGASVKMSCKASGYTFTSYWMHWVKQRPGQGLEWIGMIDPSNSETWLNQKFKDKATLNVDKSSNTAYMQLSSLTSEDSAVYYCARYDGYYDYWGQGTTLTVSS
VL: NIVLTQSPASLAVSLGQRATISCRASESVDSYGNSFMHWYQQKPGQPPKLLIYLASNVESGVPARFSGSGSRTDFTLTIDPVEADDAATYYCQQNNEDPWTFGGGTKLEIK
notes: mouse hybridoma IgG
B2: 10-K10 (antibody, V domains shown)
VH: EVQLQQSGPELVKPGASVKMSCKASGYTITDYYMMWLKQSHGKSLEWIGDINPYTGGTSYNQKFKGKATLTVDKSSSTAYMQLNSLTSEDSAVYYCARGAYWGQGTTLTVSS
VL: not shown
notes: mouse hybridoma IgG
B3: 2-A3 (antibody, V domains shown)
VH: B2 VH with I29F, L37V, T55N, T58S, Q62P, K67R, A100T, T107L, L108V, S112A
VL: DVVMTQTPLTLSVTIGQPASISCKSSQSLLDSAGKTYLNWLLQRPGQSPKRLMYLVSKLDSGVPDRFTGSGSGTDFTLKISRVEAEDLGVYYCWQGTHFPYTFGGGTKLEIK
notes: mouse hybridoma IgG
B4: 6-A15 (antibody, V domains shown)
VH: B2 VH with M81L, N84H
VL: not shown
notes: mouse hybridoma IgG
B5: 10-F23 (antibody, V domains shown)
VH: QVTLKESGPGILQPSQTLSLTCSFSGFSLSTFAMGVGWIRQPSGKGLEWLAHIWWDDDKYYNPALKSRLTISKDTSKNHVFLKIANVDTADTATYYCARMPLTFYFDYWGQGTTLTVSS
VL: DVLLTQTPLSLPVSLGDQASISCRSSQSIVHSNGHTYLEWYLQKPGQSPKLLIYKVSNRFSGVPDRFSGSGSGTDFTLKISRVEAEDLGVYYCFQGSHVPFTFGGGTKLEIK
notes: mouse hybridoma IgG
B6: 6-A12 (antibody, V domains shown)
VH: B5 VH with S30R, H79Q
VL: B5 VL with L4M, H35N, N58T
notes: mouse hybridoma IgG
B7: 7-O8 (antibody, V domains shown)
VH: EVQLQQSGPELVKPGASVKMSCKASGYTFTDYYIHWVKQKPGQGLEYIGEIYPGSGNTYYNGKFRGKATLTADKSSSTAYMQLSSLTSEDSAVYFCGSGYFDYWGQGTTLTVSS
VL: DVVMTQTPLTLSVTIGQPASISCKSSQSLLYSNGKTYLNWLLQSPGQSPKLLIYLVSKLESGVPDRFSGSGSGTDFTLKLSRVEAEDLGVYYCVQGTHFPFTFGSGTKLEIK
notes: mouse hybridoma IgG
B8: 6-O12 (antibody, V domains shown)
VH: EVKLEESGGGLVQPGGSMKLSCAASGFTFSDAWMDWVRQSPEAGLEWVAEIRNKAHNPATYYAESVKGRFTISRDDSKSSVYLQMNSLRAEDTGIYYCTLVAPDAMDYWGQGTSVTVSS
VL: DIVMSLSPSSLAVSVGEKVTMSCKSSQSLLYSRNQKNYLAWYQQKPGQSPKLLIYWASTRASGVPDRFTGSGSGTDFTLTISSVKAEDLAVYYCQQYYSYPYTFGGGTKLEIK
notes: mouse hybridoma IgG
B9: 6-B21 (antibody, V domains shown)
VH: EVQLQQSGPELVKPGASVKISCKASGYTFTDYYMNWVKQSHGKSLEWIGDINPHNGGTSFIQKFKGKATLTVDKSSSTAYMELRSLTSEDSAVYYCAPLGRKEGFAYWGQGTLVTVSA
VL: DTVLTQSPASLVVSLGQRATISCRASKSVSTSGYSYMHWYQQKPGQPPKLLIYLASNLESGVPARFSGSGSGTAFTLNIHPVEEEDAATYYCQHSRELPYTFGGGTKLEIK
notes: mouse hybridoma IgG
B10: 6-M8 (antibody, V domains shown)
VH: QVQLQQPGAELVMPGASVKLSCKASGYTFTNYWMHWVKQRPGQGLEWIGEIDPSDSYTNYNQKFKGKATLTVDKSSSTAYMQLSSLTSEDSAVYYCTRQGSTYAWGQGTSVTVSS
VL: DIVMTQAAFSNPVTLGTSASISCRSSKSLLHSNGITYLYWYLQKPGQSPQLLIYQMSNLASGVPDRFSSSGSGTDFTLRISRVEAEDVGVYYCAQNLELPPTFGGGTKLEIK
notes: mouse hybridoma IgG
B11: 6-P20 (antibody, V domains shown)
VH: EVQLQQSGPELVKPGASVKISCKASGYTFTDYYMNWVKQSHGRSLELIGDINPNNGGSNFNQKFRGKATLTVDKSSSTAYMELRSLTSEDSAIYYCARMGYWGQGTLVTVSA
VL: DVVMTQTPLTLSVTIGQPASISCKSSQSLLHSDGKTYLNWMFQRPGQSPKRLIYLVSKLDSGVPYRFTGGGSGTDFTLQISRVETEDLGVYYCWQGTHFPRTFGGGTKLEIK
notes: mouse hybridoma IgG
B12: 9-B11 (antibody, V domains shown)
VH: QVQLQQPGAELVRPGTSVKLSCKASGYTFTSYWMHWVQQRPGQGLEWIGVIDPSDSYTNYNQKFKGKATLTVDTSSSSAYMQLSSLTSEDSAVYYCARDDVAMDYWGQGTSVTVSS
VL: DIVVTQSPASLAVSLGQRATISCRASESVDSYGNSFIHWYQQKPGQPPKLLIYRASNLKSGIPARFSGSGSRTDFTLTINPVEADDVATYYCQQSNEDPYTFGGGTKLEIK
notes: mouse hybridoma IgG
B13: 3-G5 (antibody, V domains shown)
VH: QVQLQQSGAELARPGASVKLSCKASGYTFTSYGISWVKQRTGQGLEWIGEIFPRSSNTYYNEKFKGKATLTADKSSSTVYMEFRSLTSEDSAVYFCAREGGLAWFAYWGQGTLVTVSA
VL: DVVMTQTPLTLSVTIGQPASISCKSSQSLLYTNGNTYLNWLLQRPGQSPKRLIYLVSKLDSGIPDRFSGSGSGTDFTLRISRVEAEDLGVYYCLQSTHFPFTFGSGTKLEIK
notes: mouse hybridoma IgG
B14: 18E10F10 (antibody, V domains shown)
VH: EVQLVESGGGLVQPGRSLKLSCAASRFTFSDYNMAWVRQAPKKGLEWVATIYHDDSGSYYRDSVKGRFTISRNNAKSTLYLQMDSLRSEDMATYYCARHNNGFDYWGQGVMVTVAS
VL: DVVMTQTPVSLPVRLGGQASISCRSSQSLVHSNGNTYLHWYLQKPGQSPQLLINRVSNRFSGVPDRFSGSGSGTDFTLKINRVEPEDLGDYYCLQSTHFPLTFGSGTKLETK
notes: rat hybridoma mAb
B15: 8H8E9 (antibody, V domains shown)
VH: QVQLKESGPGLVQPSQTLSLTCTVSGFSLTSNSVSWVRQAPGKGLEWMGAIWSGGSTDYNSALKSRLSISRDTSKSQVFLKMNSLQTEDTAIYFCTRSHWEPFDYWGQGVMVTVSS
VL: DIVMTQSPFSLAVSEGEMVTINCKSSQGLLSSGNQKNYLAWYQQRPGQSPKLLIYYASTRQSGVPDRFIGGGSGTDFTLTISDVQAEDLADYYCLQHYSYPPTFGSGTKLEIK
notes: rat hybridoma mAb
B16: 6E5C11 (antibody, V domains shown)
VH: B15 VH with K5R, S35T, A40P, G54D, A62T, N83S
VL: B15 VL with F9L, M18T, I21M, G28S, L30F, R45K, G71S, A86T, S99N
notes: rat hybridoma mAb

Target: T2, recombinant human α11β1 (human, UniProt Q9UKX5 23-1141; P05556 21-728)
T2 construct: Coated in ELISA; ELISA and SPR material treated as one molecule; also called HIS-tagged human α11β1; integrin alpha 11 beta 1
Assay: ELISA on recombinant human α11β1
Method: (§1) 0.25 μg/mL of target antigen (recombinant human or mouse α11β1) was plated in a 96-well plate over night at 4° C. Plates were washed (PBS with 0.1% Tween-20), blocked (PBS with 2% BSA and 0.05% Tween-20) for 1 hour at room temperature and incubated with a range of antibody concentrations for 1 hour at room temperature. Subsequently, plates were washed and incubated with biotinylated anti-rabbit/mouse/human IgG in a 1:1000 dilution buffer and incubated for 1 hour at room temperature. After washing the plates, Streptavidin HRP was added at 1:200 in dilution buffer and incubated for 1 hour at room temperature. Ultra TMB ELISA substrate solution was added and the plates incubated for 5 minutes on a plate shaker. The reaction was stopped by adding stop solution to each well and plates were read at 450 nm.

| Binder | binding result |
| --- | --- |
| B1 | binds |
| B2 | binds |
| B3 | binds |
| B4 | binds |
| B5 | binds |
| B6 | binds |
| B7 | binds |
| B8 | binds |
| B9 | binds |
| B10 | binds |
| B11 | binds |
| B12 | binds |
| B13 | binds |
| B14 | binds |
| B15 | binds |
| B16 | binds |

Target: T3, recombinant mouse α11β1 (mouse, UniProt P61622 23-1141; P09055 21-728, limits assumed)
T3 construct: also called murine α11β1
T3 sequence (P61622 23-1141 limits assumed, chain 1 of 2): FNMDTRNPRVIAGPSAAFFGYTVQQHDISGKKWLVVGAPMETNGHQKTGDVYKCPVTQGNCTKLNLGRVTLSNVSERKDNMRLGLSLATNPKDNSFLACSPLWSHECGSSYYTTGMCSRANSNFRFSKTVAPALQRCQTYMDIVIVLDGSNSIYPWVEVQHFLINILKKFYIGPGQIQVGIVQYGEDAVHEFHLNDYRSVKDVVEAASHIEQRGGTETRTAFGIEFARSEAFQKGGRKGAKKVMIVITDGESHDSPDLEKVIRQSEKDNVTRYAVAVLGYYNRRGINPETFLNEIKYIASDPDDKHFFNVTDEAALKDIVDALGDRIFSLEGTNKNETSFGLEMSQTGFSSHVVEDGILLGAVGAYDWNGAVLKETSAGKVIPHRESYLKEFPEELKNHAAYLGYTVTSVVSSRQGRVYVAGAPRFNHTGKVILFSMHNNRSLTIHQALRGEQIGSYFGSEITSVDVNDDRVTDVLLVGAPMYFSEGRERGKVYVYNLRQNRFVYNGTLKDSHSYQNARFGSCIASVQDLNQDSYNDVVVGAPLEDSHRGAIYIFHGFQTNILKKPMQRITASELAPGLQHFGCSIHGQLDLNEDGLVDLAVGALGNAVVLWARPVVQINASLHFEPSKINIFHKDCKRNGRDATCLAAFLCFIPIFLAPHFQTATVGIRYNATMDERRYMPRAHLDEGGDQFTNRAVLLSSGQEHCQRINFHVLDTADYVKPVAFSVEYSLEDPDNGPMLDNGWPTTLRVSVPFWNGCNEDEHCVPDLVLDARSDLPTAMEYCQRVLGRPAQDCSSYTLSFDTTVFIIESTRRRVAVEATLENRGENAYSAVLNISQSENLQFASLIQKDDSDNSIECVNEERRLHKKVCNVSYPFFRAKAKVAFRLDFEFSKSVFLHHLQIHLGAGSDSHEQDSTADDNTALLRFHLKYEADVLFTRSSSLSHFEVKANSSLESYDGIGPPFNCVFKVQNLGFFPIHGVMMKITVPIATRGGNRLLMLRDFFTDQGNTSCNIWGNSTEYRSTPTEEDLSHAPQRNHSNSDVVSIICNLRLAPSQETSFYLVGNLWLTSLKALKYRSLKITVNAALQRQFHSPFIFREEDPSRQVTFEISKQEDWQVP
T3 sequence (P09055 21-728 limits assumed, chain 2 of 2): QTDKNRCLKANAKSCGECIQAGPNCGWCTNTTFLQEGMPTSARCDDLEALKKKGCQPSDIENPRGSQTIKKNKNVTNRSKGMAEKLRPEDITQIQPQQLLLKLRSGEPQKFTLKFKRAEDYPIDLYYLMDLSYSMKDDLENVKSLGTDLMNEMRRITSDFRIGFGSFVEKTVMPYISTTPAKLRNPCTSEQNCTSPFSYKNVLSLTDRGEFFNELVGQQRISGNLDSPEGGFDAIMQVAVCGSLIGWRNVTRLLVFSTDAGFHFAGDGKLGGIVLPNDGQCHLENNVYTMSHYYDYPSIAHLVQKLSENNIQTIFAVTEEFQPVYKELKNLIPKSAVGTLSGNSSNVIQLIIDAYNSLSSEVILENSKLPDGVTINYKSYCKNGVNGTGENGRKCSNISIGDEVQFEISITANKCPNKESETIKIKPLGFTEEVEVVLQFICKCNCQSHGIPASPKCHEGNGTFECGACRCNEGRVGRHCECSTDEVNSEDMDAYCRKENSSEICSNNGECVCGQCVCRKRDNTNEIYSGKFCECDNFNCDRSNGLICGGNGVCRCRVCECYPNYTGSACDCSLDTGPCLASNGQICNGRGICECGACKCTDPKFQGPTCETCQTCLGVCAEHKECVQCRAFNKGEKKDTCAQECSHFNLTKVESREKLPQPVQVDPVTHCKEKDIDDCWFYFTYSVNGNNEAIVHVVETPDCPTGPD
Assay: ELISA on recombinant mouse α11β1
Method: as §1

| Binder | binding result |
| --- | --- |
| B1 | binds |
| B2 | binds |
| B3 | binds |
| B4 | binds |
| B5 | binds |
| B6 | binds |
| B7 | binds |
| B8 | no binding |
| B9 | binds |
| B10 | no binding |
| B11 | no binding |
| B12 | no binding |
| B13 | binds |
| B14 | no binding |
| B15 | no binding |
| B16 | no binding |

Target: T1, in-house generated I domain of α11β1
Assay: binding to isolated I domain

| Binder | binding result |
| --- | --- |
| B2 | no binding |
| B3 | no binding |
| B4 | no binding |
| B8 | no binding |
| B9 | no binding |
| B10 | no binding |
| B11 | no binding |
| B13 | no binding |
| B14 | no binding |

Target: T4, α11β1 on human myofibroblasts (MF) (human, UniProt Q9UKX5 23-1188; P05556 21-798)
T4 construct: whole, on cells
T4 sequence (Q9UKX5 23-1188, chain 1 of 2): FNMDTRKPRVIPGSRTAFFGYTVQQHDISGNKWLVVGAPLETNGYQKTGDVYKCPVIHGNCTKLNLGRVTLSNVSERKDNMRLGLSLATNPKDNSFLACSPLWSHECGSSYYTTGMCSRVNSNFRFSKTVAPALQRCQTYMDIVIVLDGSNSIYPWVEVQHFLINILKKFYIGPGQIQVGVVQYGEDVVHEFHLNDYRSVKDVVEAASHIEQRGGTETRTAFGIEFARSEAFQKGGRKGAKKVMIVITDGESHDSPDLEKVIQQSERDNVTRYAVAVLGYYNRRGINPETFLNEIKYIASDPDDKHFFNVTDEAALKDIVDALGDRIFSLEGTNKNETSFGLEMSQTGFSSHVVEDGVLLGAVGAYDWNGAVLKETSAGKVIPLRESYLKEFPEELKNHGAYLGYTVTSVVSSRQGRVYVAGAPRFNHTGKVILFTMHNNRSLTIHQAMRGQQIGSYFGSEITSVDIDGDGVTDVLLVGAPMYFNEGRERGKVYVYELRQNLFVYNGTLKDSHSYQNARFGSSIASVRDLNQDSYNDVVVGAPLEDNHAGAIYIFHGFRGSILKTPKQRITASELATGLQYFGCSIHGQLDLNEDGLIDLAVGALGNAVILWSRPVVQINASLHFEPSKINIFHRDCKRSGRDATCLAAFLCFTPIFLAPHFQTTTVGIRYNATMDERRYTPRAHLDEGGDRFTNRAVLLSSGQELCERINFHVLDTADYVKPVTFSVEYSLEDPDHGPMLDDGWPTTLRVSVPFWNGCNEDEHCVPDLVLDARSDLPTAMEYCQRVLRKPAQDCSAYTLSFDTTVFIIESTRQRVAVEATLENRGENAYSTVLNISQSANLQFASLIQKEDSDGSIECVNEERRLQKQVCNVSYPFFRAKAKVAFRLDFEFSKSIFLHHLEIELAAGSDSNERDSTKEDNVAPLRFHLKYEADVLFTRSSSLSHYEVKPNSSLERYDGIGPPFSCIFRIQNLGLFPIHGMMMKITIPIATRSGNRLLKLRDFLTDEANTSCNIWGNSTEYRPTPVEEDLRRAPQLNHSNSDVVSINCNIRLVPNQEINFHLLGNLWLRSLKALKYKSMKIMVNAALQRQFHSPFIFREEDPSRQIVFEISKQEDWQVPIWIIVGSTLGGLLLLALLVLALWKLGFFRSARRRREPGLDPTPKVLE
T4 sequence (P05556 21-798, chain 2 of 2): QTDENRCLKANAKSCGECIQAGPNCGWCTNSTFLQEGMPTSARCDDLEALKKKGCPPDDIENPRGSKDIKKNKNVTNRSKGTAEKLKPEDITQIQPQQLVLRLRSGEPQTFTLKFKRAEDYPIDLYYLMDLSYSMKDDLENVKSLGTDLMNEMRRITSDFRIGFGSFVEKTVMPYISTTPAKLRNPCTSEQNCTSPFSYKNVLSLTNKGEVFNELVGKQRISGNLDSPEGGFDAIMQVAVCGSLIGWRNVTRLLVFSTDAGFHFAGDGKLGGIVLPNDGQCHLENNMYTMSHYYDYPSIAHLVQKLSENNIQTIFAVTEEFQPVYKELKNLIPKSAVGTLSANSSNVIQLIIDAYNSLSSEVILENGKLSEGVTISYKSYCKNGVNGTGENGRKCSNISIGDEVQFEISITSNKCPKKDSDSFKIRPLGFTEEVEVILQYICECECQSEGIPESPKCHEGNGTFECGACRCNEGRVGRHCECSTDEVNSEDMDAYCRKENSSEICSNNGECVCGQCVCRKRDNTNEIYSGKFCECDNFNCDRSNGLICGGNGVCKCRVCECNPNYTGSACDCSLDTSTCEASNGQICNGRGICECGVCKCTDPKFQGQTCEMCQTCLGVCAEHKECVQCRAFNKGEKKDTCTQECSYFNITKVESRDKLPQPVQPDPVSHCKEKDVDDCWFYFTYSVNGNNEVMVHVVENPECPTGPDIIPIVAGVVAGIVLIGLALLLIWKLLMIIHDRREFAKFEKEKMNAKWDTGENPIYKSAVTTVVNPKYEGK
Assay: FACS on human myofibroblasts
Method: Human Pulmonary Fibroblasts (ScienCell) were cultured in complete Fibroblast Growth Medium (ScienCell) until 80% confluent in T-150 flasks. Cells were washed and harvested using Accutase. Cells were seeded into T-150 flasks at 7,500 cells/cm² in complete FGF and cultured for 72 hours. Cells were then washed and starved in serum reduced medium for 24 hours. After starvation, cells were treated with TGFβ-1 (R&D Systems) for 72 hours. Cells were harvested using Accutase and seeded in 96-well conical bottom plates. Cells were blocked with Heat Inactived Fetal Bovine Serum (Gibco) for 30 minutes at 4° C. Cells were then incubated with anti-α11 antibodies at the doses described in each figure for 30 minutes at 4° C. A human anti-α11 antibody (Creative BioLabs) was included as a positive control as well as the appropriate IgG isotype negative controls. Cells were washed twice and incubated with PE conjugated secondary antibodies specific to the IgG class of the anti-α11 antibodies being tested for 30 minutes at 4° C. Cells were washed twice and fixed in 1% PFA for 30 minutes. Cells were acquired on a FACS Verse […]. Data were analyzed by gating on single cells and determining the geometric Mean Fluorescence Intensity (gMFI) in the PE channel for each sample.

| Binder | binding result |
| --- | --- |
| B2 | binds |
| B5 | binds |
| B6 | binds |
| B7 | binds |
| B12 | binds |
